Data from patent publication US10138283 (AMBRX, dated 2018).
Like-named read-outs stand apart in the source and are kept apart here. Each block holds one molecule with its values, some of them ahead of it. [ ]: non-standard residue; d: D form. Phe(4-Ac) = CC(=O)c1ccc(C[C@H](N)C(=O)O)cc1

Assays:
Assay in all cases: cell-based or functional assay
[1] = biological target: T1, G-CSF receptor on M-NFS60 cells (UniProt P40223 26-837, limits assumed)
T1 sequence (looked up): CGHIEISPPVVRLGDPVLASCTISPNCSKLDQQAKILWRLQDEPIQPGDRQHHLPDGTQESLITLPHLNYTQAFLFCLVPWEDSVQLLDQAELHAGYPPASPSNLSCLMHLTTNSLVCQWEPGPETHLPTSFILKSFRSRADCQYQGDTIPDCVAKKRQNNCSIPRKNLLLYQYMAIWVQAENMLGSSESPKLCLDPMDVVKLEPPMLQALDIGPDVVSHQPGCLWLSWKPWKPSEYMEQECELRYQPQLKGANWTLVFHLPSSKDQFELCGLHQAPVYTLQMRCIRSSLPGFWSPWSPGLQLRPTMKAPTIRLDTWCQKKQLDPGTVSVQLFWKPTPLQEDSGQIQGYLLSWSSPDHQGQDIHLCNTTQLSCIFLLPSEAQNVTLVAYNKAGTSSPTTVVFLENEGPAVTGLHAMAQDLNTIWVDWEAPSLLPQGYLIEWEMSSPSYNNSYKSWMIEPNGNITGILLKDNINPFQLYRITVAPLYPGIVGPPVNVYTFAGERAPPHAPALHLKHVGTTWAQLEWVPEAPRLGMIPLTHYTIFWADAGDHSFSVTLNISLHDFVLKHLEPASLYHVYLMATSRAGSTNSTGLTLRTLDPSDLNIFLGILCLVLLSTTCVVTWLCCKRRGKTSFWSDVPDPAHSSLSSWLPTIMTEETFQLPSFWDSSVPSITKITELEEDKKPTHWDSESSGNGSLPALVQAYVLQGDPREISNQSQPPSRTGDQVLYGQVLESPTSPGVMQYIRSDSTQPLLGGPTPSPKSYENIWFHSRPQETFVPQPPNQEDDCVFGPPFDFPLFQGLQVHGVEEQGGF

[2] = biological target: T1, G-CSF receptor on M-NFS60 cells; remark: listed apart in the source
[3] = biological target: T1, G-CSF receptor on M-NFS60 cells; remark: listed apart in the source
[4] = biological target: T1, G-CSF receptor on M-NFS60 cells; remark: listed apart in the source
[5] = biological target: T1, G-CSF receptor on M-NFS60 cells; remark: listed apart in the source

M-NFS60 proliferation assay, Avg EC50 [ng/ml] [1]: 0.025 ng/mL | M-NFS60 proliferation assay, Fold Diff EC50 [X] [1]: 1 fold
Molecule: Neupogen (filgrastim) (from UniProt P09919 31-204) (ligand)

M-NFS60 proliferation assay, Avg EC50 [ng/ml] [1]: 0.077 ng/mL | M-NFS60 proliferation assay, Fold Diff EC50 [X] [1]: 3.2 fold
Molecule: Neulasta (pegfilgrastim) (from UniProt P09919 31-204) (ligand)

M-NFS60 proliferation assay, Avg EC50 Values [5]: 0.348 ng/mL
B6: 20k PEG-bR7 (bG-CSF R7pAF, 20K PEG) (ligand)
chain: MTPLGPA[Phe(4-Ac)](PEG 20 kDa)SLPQSFLLKCLEQVRKIQADGAELQERLCAAHKLCHPEELMLLRHSLGIPQAPLSSCSSQSLQLTSCLNQLHGGLFLYQGLLQALAGISPELAPTLDTLQLDVTDFATNIWLQMEDLGAAPAVQPTQGAMPTFTSAFQRRAGGVLVASQLHRFLELAYRGLRYLAEP

Further lines, the molecule ahead of its results:

B1: 20k PEG-bL3 (bG-CSF L3pAF, 20K PEG) (ligand)
chain: TP[Phe(4-Ac)](PEG 20 kDa)GPARSLPQSFLLKCLEQVRKIQADGAELQERLCAAHKLCHPEELMLLRHSLGIPQAPLSSCSSQSLQLTSCLNQLHGGLFLYQGLLQALAGISPELAPTLDTLQLDVTDFATNIWLQMEDLGAAPAVQPTQGAMPTFTSAFQRRAGGVLVASQLHRFLELAYRGLRYLAEP
modifications: not fully specified (N-terminus)
M-NFS60 proliferation assay, Avg EC50 Values [2]: 0.477 ng/mL

B2: wild-type bovine G-CSF (ligand)
chain: MTPLGPARSLPQSFLLKCLEQVRKIQADGAELQERLCAAHKLCHPEELMLLRHSLGIPQAPLSSCSSQSLQLTSCLNQLHGGLFLYQGLLQALAGISPELAPTLDTLQLDVTDFATNIWLQMEDLGAAPAVQPTQGAMPTFTSAFQRRAGGVLVASQLHRFLELAYRGLRYLAEP
M-NFS60 proliferation assay, Avg EC50 [ng/ml] [3]: 0.053 ng/mL | M-NFS60 proliferation assay, Fold Diff EC50 [X] [4]: 1 fold

B3: 20k PEG-bS62 (bG-CSF S62pAF, 20K PEG) (ligand)
chain: MTPLGPARSLPQSFLLKCLEQVRKIQADGAELQERLCAAHKLCHPEELMLLRHSLGIPQAPL[Phe(4-Ac)](PEG 20 kDa)SCSSQSLQLTSCLNQLHGGLFLYQGLLQALAGISPELAPTLDTLQLDVTDFATNIWLQMEDLGAAPAVQPTQGAMPTFTSAFQRRAGGVLVASQLHRFLELAYRGLRYLAEP
M-NFS60 proliferation assay, Avg EC50 Values [5]: 0.15 ng/mL

B4: 20k PEG-bR166 (bG-CSF R166pAF, 20K PEG) (ligand)
chain: MTPLGPARSLPQSFLLKCLEQVRKIQADGAELQERLCAAHKLCHPEELMLLRHSLGIPQAPLSSCSSQSLQLTSCLNQLHGGLFLYQGLLQALAGISPELAPTLDTLQLDVTDFATNIWLQMEDLGAAPAVQPTQGAMPTFTSAFQRRAGGVLVASQLHRFLELAY[Phe(4-Ac)](PEG 20 kDa)GLRYLAEP
M-NFS60 proliferation assay, Avg EC50 Values [5]: 0.363 ng/mL

B5: bG-CSF T133pAF-20K PEG (ligand)
chain: MTPLGPARSLPQSFLLKCLEQVRKIQADGAELQERLCAAHKLCHPEELMLLRHSLGIPQAPLSSCSSQSLQLTSCLNQLHGGLFLYQGLLQALAGISPELAPTLDTLQLDVTDFATNIWLQMEDLGAAPAVQP[Phe(4-Ac)](PEG 20 kDa (hydroxylamine/oxyamino PEG))QGAMPTFTSAFQRRAGGVLVASQLHRFLELAYRGLRYLAEP
M-NFS60 proliferation assay, Avg EC50 [ng/ml] (batch NK2) [3]: 0.27 ng/mL | M-NFS60 proliferation assay, Avg EC50 Values (batch NK1) [5]: 0.258 ng/mL | M-NFS60 proliferation assay, Fold Diff EC50 [X] vs. WT bG-CSF (batch NK2) [4]: 5.1 fold
